# Experimental data: patent US20220403174A1, “METHOD FOR PREPARING COLORANT HAVING TARGET COLOR AND COLORANT” (Fudan University, priority 2021, published 2022)
# Assay: stability of the structural color on a baked biscuit at high temperature
# Type: physicochemical
# Conditions: 130-150° C.
# Protocol: At block 902, a predetermined solution mixed with the submicron particles prepared from the predetermined material and the cuttlefish juice submicron particles is applied to a target object. The target object, for example, is food such as, but not limited to, various pastries and candies. For example, a mixture solution of the TiO2 submicron particles and cuttlefish juice submicron particles are added dropwise onto a surface of a biscuit.
# At block 904, the target object is baked or frozen to evaporate or sublimate the predetermined solution such that the submicron particles prepared from the predetermined material and the cuttlefish juice submicron particles can be self-assembled into the amorphous photonic crystal structure on the target object, where the baking temperature is less than or equal to 250° C.
# For example, when baked, the biscuit having drops of the mixture solution added onto the surface is dried with the increasing baking temperature. In the case, the submicron particles prepared from the predetermined material and the cuttlefish juice submicron particles are self-assembled to generate the structural color of the amorphous photonic crystal structure. The structural color is stable in the baked state at a high temperature (130-150° C.), and the legacy phycocyanin will fade at such high temperature. […]
substance,measurement,value
phycocyanin,color stability in the baked state,will fade
